In the supplement of paper PMC9170038:

Assays:
[1] = tested on: MS2 coat protein; assay: apparent KD of MS2 coat protein; designed switch direction (-1 OFF switch, 1 ON switch): 1; higher = weaker reporter binding
Outline: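 Normalised cluster fluorescence was curve-fitted, and each design's median over clusters is its apparent KD. Before this, SNAP-549-labelled MS2 coat protein was titrated from 0.7 or 1.5 nM, doubling to 3 µM, over RNA switches transcribed on Illumina chips by stalled E. coli RNA polymerase. Titrations had no input, 200 uM small-molecule ligand, or an oligonucleotide input, and steps lasted 0.8–1.5 h (lowest) to 10–20 min (highest).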

[2] = tested on: MS2 coat protein; assay: apparent KD of MS2 coat protein; higher = weaker reporter binding; conditions: Eterna round: R107
Outline: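 In 100 mM Tris-HCl pH 7.5 with 80 mM KCl and 4 mM MgCl2, and without or with constant ligand, SNAP-549-labelled MS2 coat protein was titrated in twofold steps from 0.7 or 1.5 nM to 3 µM. Per-step times went from 0.8–1.5 h down to 10–20 min. The RNA switches were transcribed on-chip from Illumina sequencing clusters, and apparent KD is the per-design median of normalised cluster binding-curve fits.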

[3] = input ligand: microRNA oligo, concentration not stated
[4] = Eterna round: R95, input ligand: FMN 200 uM
[5] = Eterna round: R95, input ligand: microRNA oligo, concentration not stated
[6] = Eterna round: R95, input ligand: none

Sequence	apparent KD of MS2 coat protein ([1]; input ligand: FMN 200 uM) [nM]	apparent KD of MS2 coat protein [1, 3] [nM]	apparent KD of MS2 coat protein ([1]; input ligand: none) [nM]	apparent KD of MS2 coat protein [1, 4] [nM]	apparent KD of MS2 coat protein [1, 5] [nM]	apparent KD of MS2 coat protein [1, 6] [nM]	also measured
UAAGUCAUGUAAGGAUAUGCAGCCGAAACGGCUGCAGAAGGUACUAUAAUUACAUGAGGAUCACCCAUGUUAUAAAAUUUAAAU [Mat - Same State NG 1 - JL mod - D78] (Eterna round: R96, puzzle: Same State NG 1)	24.1	43.2	60.7				
AAUGUCUCACAUGAGGAUCACCCAUGUCUUUGGAUGAAGCUUUUUGCUCGUCUUCAUUUUGCUCGUCUUACCCAUGU [SBY_1] (puzzle: Sensor for hsa-mir-208a version 2)				44.8	21	52.7	
AUUGGGUAACGAGGAUAUCGUUUUUGUUUUCUUCGAGAAGGCGUUAUAGUUUAUUUCUAUUGUUACAUGAGGAUCACCCAUGUU [JR_SSNG1_Sub054] (Eterna round: R96, puzzle: Same State NG 1)	15.2	16.5	24.1				
GGCACAAAAGCACAGGAUAUGCAAAAGAACACAUGAGGAUCACCCAUGUAGCCUAAUAAAGGGCAGCAGAAGGGUGGGACUGCCA [Quaat] (puzzle: Same State 2)				74.5	239	239	
AUAAGUUUGAUGCUCGUCUCUCCGUACAAACAUGAGGAUCACCCAUGUGGUCGGGAAGUAGCCCGGCCAGUAUGACC [Rigebelain] (puzzle: Sensor for hsa-mir-208a)				32.7	24.4	35.2	
UUUAGUAGCGGGCAGGAUAUGUAUUAAAAUACAUGAGGAUCACCCAUGUGCGGGUAUAACACCCGACAGAAGGGCCAAUCGCUAC [Laonerce - 8] (puzzle: Same State 2)				22.3	162	237	
UGGUACAUGGGAGGAUAUGGGCAAGAGACAUGAGGAUCACCCAUGUUAUAAAAGCCGAGAGGCAUCUAGAAGGCCCAUGUACCU [JL SSNG1 3.90] (Eterna round: R96, puzzle: Same State NG 2)	14.6	38.5	55.4				
CGACUAAAGUCACAGGAUAUACGCCGUACUACAUGAGGAUCACCCAUGUUCGGGACAGUCGCGGUGUAGAAGGGUGUGGGUCAAC [Errabeed] (puzzle: Same State 2)				17.6	31.2	38.9	
GAGGCACAUGAGGAUCACCCAUGUGGGCGGAACAUAGGAUAUCGCCAACAAUAAGCCCGGUGAGAAGGAUGAUGCC [Lexereat] (puzzle: Same State 1)				46.2	17.6	36.4	
AAUUAUUAACAUGAGGAUCACCCAUGUAUUUUUUGCUCGUCAUGUAUUAUUAUUAUUAUUAUUAUUAUUAUUAUUAA [my first RNA] (puzzle: Sensor for hsa-mir-208a version 2)				26.8	17.1	37.8	
GUGGUCAGACAUGAGGAUCACCCAUGUGGAAUAAAUAACGUACAGGAUAUUGAAUAUAGGAUAUACAAGAAGGGUAGAUUGGUG (Eterna round: R96, puzzle: Same State NG 3)	167	115	127				
GUUACAUGAGGAUCACCCAUGUAUGUGUGGGAGUAAGUGUCUUAGGAUAUCUAUUAUUUAAGUUAAGAGAAGGAAGAUUGUUGU [JMF's solution 23] (Eterna round: R96, puzzle: Same State NG 3)	121	94.7	114				
UCUAGACAUGAGGAUCACCCAUGUCGAUAUGACACAGGAUAUCGGUACUCAUAGAGUACGCGAGAAGGGUGACUUC [Same State 1 - Mod of Vinnie Gere v.3] (puzzle: Same State 1)				112	115	166	
AUACAUGAGGAUCACCCAUGUAUAGUUGAAGGAGCGACCAGAGGGUCAGGUAGGUCGCAGCACAUGAGGAUCACCCAUGUAUUUU [#1 Exclusion - Arginine A Attempt #14 (Inspired by Pi)]							apparent KD of MS2 coat protein ([2]; input ligand: arginine 13.2 mM): 32.6 nM; apparent KD of MS2 coat protein ([2]; input ligand: none): 38 nM; apparent KD of MS2 coat protein ([2]; input ligand: theophylline 20 uM): 40.3 nM; apparent KD of MS2 coat protein ([2]; input ligand: theophylline 2 mM): 35.1 nM; apparent KD of MS2 coat protein ([2]; input ligand: tryptophan 2.4 mM): 27.3 nM
